# Where two headings read alike, the source gives them in different places.
# B1: Dam1C/DASH heterodecamer (recombinant) (complex, S. cerevisiae)
# chain 1: MSEDKAKLGTTRSATEYRLSIGSAPTSRRSSMGESSSLMKFADQEGLTSSVGEYNENTIQQLLLPKIRELSDSIITLDSNFTRLNFIHESLADLNESLGSLLYGIMSNSWCVEFSQAPHDIQDDLIAIKQLKSLEDEKNNLVMELSNMERGIKRKKDEQGENDLAKASQNKQFNQPLFPSSQVRKYRSYDNRDKRKPSKIGNNLQVENEEDYEDDTSSEASFVLNPTNIGMSKSSQGHVTKTTRLNNNTNSKLRRKSILHTIRNSIASGADLPIENDNVVNLGDLHPNNRISLGSGAARVVNGPVTKNRNSMFSGRAERKPTESRHSVAKKTEKKINTRPPFR
# chain 2: MMASTSNDEEKLISTTDKYFIEQRNIVLQEINETMNSILNGLNGLNISLESSIAVGREFQSVSDLWKTLYDGLESLSDEAPIDEQPTLSQSKTK
# chain 3: MDSIDEQIAIKRKELQSLQKITSLTDGLKIQLTELNEQIKEMGMNADSVAQLMNNWDSIINNISQASLGLLQYAEGDYEIGPWKDSKKKESEQSNETGLEAQENDKNDEDNDEDEDLVPLPETMVRIRVDGNE
# chain 4: MEHNLSPLQQEVLDKYKQLSLDLKALDETIKELNYSQHRQQHSQQETVSPDEILQEMRDIEVKIGLVGTLLKGSVYSLILQRKQEQESLGSNSK
# chain 5: MENPHEQVQANILSRIIGNVKRLNESVAILNQELVTINNRNKNLEIMGAICDNYHSSVQFNLEATNNKKPPL
# chain 6: MSEQSQLDDSTIDKLIPQIFNEMRSNLNNTTNKFPKSTGGGASDNISANSNSIRSFNSITTQSLLKESESLDKITAMIKNVTAALKNNLPVYVNQVHEVCKSTNSILDSWINIHSQAGYIHKLMSDQTYLKLINDRLHNENVNTNDEDGSTLHNVIALKKKEILDLRQKLENRKGEKDAAPAKPPNQGLNPRYGVQSGRRPVPSAGISNNGRVRKTHVPASKRPSGIPRVTNRWTKPTASSSRKMFR
# chain 7: MDSASKEETLEKLDQEITVNLQKIDSNLSFCFHKITQDIIPHVATYSEICERIMDSTEWLGTMFQETGLVNLQANAAAPVGNAPVKSLVSNNVGIFPTSAEEASRQSQTDNGPNEADSAVHVNRDVHSMFNNDSIDDFHTANITSTGQILKLPDSSDEDTGSEAVPSREQTDLTGEGHGGADDEQDESTIQRQSRKRKISLLLQQQYGSSSSMVPSPIVPNKMRKQLAHEEHINNDGDNDDENSNNIESSPLKQGHHHPKGQADDNNEGPDEEESTKEVPKPGTIIHFSTNR
# chain 8: MTDALEQSVLALEGTVSVLKDSVESLKCANEPSTNLASTMLQTKRVFRLVPEYDVERSKLDLIEEVEPLVRTLGDKLRKSMGRMQRELDTLQQTYELNDLRLKKNISMDDDDALNSPDMGQEYEGRDADDVVMMASSTNEELEELKKLKEKKKQLENKLEILKQK
# chain 9: MGESLDRCIDDINRAVDSMSTLYFKPPGIFHNAILQGASNKASIRKDITRLIKDCNHDEAYLLFKVNPEKQSVSRRDGKEGVFDYVIKRDTDMKRNRRLGRPGEKPIIHVPKEVYLNKDRLDLNNKRRRTATTSGGGLNGFIFDTDLIGSSVISNSSSGTFKALSAVFKDDPQIQRLLYALENGSVLMEEESNNQRRKTIFVEDFPTDLILKVMAEVTDLWPLTEFKQDYDQLYHNYEQLSSKLRFIKKEVLLQDDRLKTMSQYHPSSSHDVAKIIRKEKDEIRRLEMEIANLQE
# chain 10: MNANKQRQYNQLAHELRELQTNLQETTKQLDIMSKQCNENLVGQLGKVHGSWLIGSYIYYMEQMLGKTQ
# B2: Dam1C/DASH outer kinetochore complex in yeast cells (in vivo) (complex)
# chain 1: B1 chain 1
# chain 2: B1 chain 2
# chain 3: B1 chain 3
# chain 4: B1 chain 4
# chain 5: B1 chain 5
# chain 6: B1 chain 6
# chain 7: B1 chain 7
# chain 8: B1 chain 8
# chain 9: B1 chain 9
# chain 10: B1 chain 10
# Key:
# cryo-EM structure [1] = target: the molecule itself; experiment: cryo-EM structure
# cryo-EM structure [2] = target: the molecule itself; experiment: cryo-EM structure; remark: listed apart in the source
Protein,stoichiometry N (cryo-EM structure [1]),stoichiometry N (cryo-EM structure [2])
B1,17,–
B2,–,17
